Results taken from the supplement of paper PMC12764529.
± gives the half width of the 95% confidence interval.

How the values were obtained:
[1] = folding stability dG unfold from chymotrypsin proteolysis; higher = more stable
Outline: (§1)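 Designed mini-proteins (under 80 residues, no cysteine) in a PA-tagged cDNA display construct were digested with trypsin and chymotrypsin. Each protease was used at 11 concentrations (threefold dilutions) plus a no-protease condition, followed by sequencing. K50 was inferred by Bayesian fitting of sequencing counts, and unfolding free energy was derived against a sequence-predicted unfolded-state K50 and a shared folded-state K50, per protease or combined. Only designs with AlphaFold2 dimer inter-PAE above 15 were kept.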

[2] = folding stability dG unfold from trypsin proteolysis; higher = more stable
Outline: as §1

[3] = folding stability dG unfold (combined trypsin and chymotrypsin); higher = more stable
Outline: as §1

Sequence	folding stability dG unfold [1] [kcal/mol]	folding stability dG unfold [2] [kcal/mol]	folding stability dG unfold [3] [kcal/mol]
SAGMTIKIKNKKTNKVITIERRPDGTTVKVKVYDKNGKLVKTYPEGMTLEELLKKFPNAKVEVVEVEKPSAG [r5_314_TrROS_Hall]	0.559 ± 0.11	1.47 ± 0.033	1.14 ± 0.07
SAGMTLIIRVKVYNKDGELVEEREIEVPNMSVEEIAEALKKLPNVEKVKIEVFNADGEKKEIEIEVKPSAGG [r19_269_TrROS_Hall]	4.43 ± 0.064	3.08 ± 0.13	4.1 ± 0.09
SAGMTTLTLSAKAPPGEAVVTLTVTLPDGTTVPLATRTVAPDEVANITVSFPSGEPIDPARLTVEVTPPSAG [r5_287_JUSTAS]	0.137 ± 0.15	0.0521 ± 0.14	0.157 ± 0.13
SAGMTTTLTKGEDGVTLTFDLPGQSVTLTVPVPPDVEVTTSFPATGTTITGTPVGDTLTITVTVPAPASAGG [r19_384_JUSTAS]	1.52 ± 0.041	1.78 ± 0.028	1.69 ± 0.038
SAGMTVEELKAQPKNATVTSVSRDPSTGLYTVTIERPDSNGKWVTHTLTLTGPEAVAAAVAAGLPSLAASAG [r5_905_JUSTAS]	2.46 ± 0.043	1.31 ± 0.026	2.16 ± 0.087
SAGMTVKVKVEVKTKYFDKNGKLVKEEKKTVEVEVEVKIVIELKPEDLEKAKELAEKLGIEITEEELKSAGG [r19_315_TrROS_Hall]	1.86 ± 0.17	1.26 ± 0.29	1.74 ± 0.56
SAGMVEIVHDPAGYYTVNVTLTKEGKPTSRTIRVPPELSPEEVKALVEELAKEEGVDDVEVTVIPLPESAGG [r19_31_JUSTAS]	1.51 ± 0.12	1.1 ± 0.035	1.41 ± 0.12
SAGMVEVYEEDKRLLVRVTLESPDPSTITEETVRELLERLGLPVEELEISPTALPNGSYTVTAEVVVLPSAG [r5_922_JUSTAS]	1.61 ± 0.025	1.39 ± 0.056	1.59 ± 0.17
SAGMVIKVEVIYNGKKYTIEISEEQLKELLEKLKPGDEVEIEINGEKVLVRVEVVEPPEPSEEELKALKSAG [r5_669_TrROS_Hall]	2.1 ± 0.2	0.944 ± 0.087	1.69 ± 0.24
SAGMVIPREEALANYSEEEIKELAKKIAEELGYKPKKIEIKKDPSPNSSITVTITPPDGSTIPLVLELPSAG [r5_745_JUSTAS]	1.08 ± 0.037	0.959 ± 0.041	1.06 ± 0.047
SAGMVIRDPGDGKYIYISPGSGEIEIFNDGKEKKIPFPPGEEMEIEIDPDDGTITITFPNNGRELEIPLSAG [r5_858_TrROS]	0.846 ± 0.11	0.598 ± 0.049	0.699 ± 0.16
SAGMVITISSDLSPEEVLATAQALAAELGAKKVEVERDPANPDVVTVTVEFPGLGKTVTVNVLPPELLESAG [r5_912_JUSTAS]	1.78 ± 0.065	1.28 ± 0.059	1.57 ± 0.15
SAGMVKTVTLSREEVEKLVRELGRSPEEMTLEEFAERLEELFPGATVTVTVDTKTGTYTITITFPPSLASAG [r5_264_JUSTAS]	4.16 ± 0.085	3.61 ± 0.25	3.93 ± 0.23
SAGMVKVEVEYRPLPNGTVEVTVKLTITEPVPDEDGNLYYKTKTLTITVPTTSLSEAPKHVEEFIKKLSAGG [r19_218_TrMRF]	4.03 ± 0.18	2.52 ± 0.12	3.37 ± 0.19
SAGMVRIERDGDELLIEFEFPEDEPEAVRALIEAIESLGLEVVEAEIEAEPGEGDLRRVRLRFKIKPLESAG [r5_739_TrMRF]	4.58 ± 0.083	3.95 ± 0.22	4.39 ± 0.15
SAGMVTTTTVTFPNGATMTVTTHSSGIITIEATSEEDARAFLEAQGLPLTSREVLPDGTYRFTAVVPPSAGG [r19_257_JUSTAS]	4.53 ± 0.057	4.61 ± 0.13	4.52 ± 0.062
SAGMVTYTVTVPYAPAGKRVRVTLFDEGKEIASFEGVENAPYNQTFTFTAPPFTIRIEYEDGSVDPLPASAG [r5_646_TrMRF]	4.05 ± 0.058	3.32 ± 0.27	3.57 ± 0.23
SAGMVVIEVKKDEVPVDPEKALVFEFGDKRYILVDGEKAEEIKDAFPNLDIKIKPVSPEELEKLLKAHSAGG [r19_271_TrMRF]	1.34 ± 0.1	1.18 ± 0.051	1.27 ± 0.14
SAGMVVKFVSPSKKYVAVVYFSPDGKYRTALLYDASGELVSVIPSSVPVEELLEAFPDATVEVYPLDPPSAG [r5_314_TrMRF]	2.59 ± 0.056	1.95 ± 0.041	2.34 ± 0.1
SAGMVVRITVLPEGEEREFVVAATPEEARELLEELGYEVEEFPELPVLVARRPDAVVLVEFIPVAPDALSAG [r5_248_TrMRF]	1.999 ± 0.015	1.59 ± 0.032	1.83 ± 0.039
SAGMVVTERTEPATGRPYTVTTEEDGSVTGSYPATGDTRSTTLNDRTTFSLPTTSPEVAAAQVEAALAASAG [r14_561_JUSTAS]	-0.313 ± 0.15	-0.138 ± 0.075	-0.137 ± 0.072

Sequence	folding stability dG unfold [1] [kcal/mol]	folding stability dG unfold [2] [kcal/mol]	folding stability dG unfold [3] [kcal/mol]
SAGMVVTINFSIPETGETITITIPVPEDDPVVKALGAPSAEDIAAYLAPQLKEKGINVQNPTVTVTEPSSAG [r5_722_JUSTAS]	0.928 ± 0.053	0.24 ± 0.043	0.705 ± 0.051
SAGNFKIDINPENNMIMIKSPNGWFMFPFTYTRTQPEPDPDDPNEWKQRPRTETHYIMMPANDLKDLLNSAG [r5_234_TrROS]	0.502 ± 0.24	0.679 ± 0.17	0.541 ± 0.27
SAGNIRIDVHVPPDGYYMIKIRFPGNGREANIMLPPNDPDKFKELAEEIAENLFEEGFPIEVDIEPIPPSAG [r5_815_TrROS]	2.34 ± 0.095	1.56 ± 0.07	1.89 ± 0.31
SAGNMFMVRITFPMPRYEQKRDPDNGKPKMEPKPHPREITIMVPPDSPQARDLANKLAPPGWKVDVFPMSAG [r5_468_TrROS]	1.43 ± 0.22	0.0695 ± 0.58	1.09 ± 0.19
SAGNPDKPPKPRTYTLEIEIKLPPGDPDQAKELAHEIAHEIRDLGIKDTEVEYDPGNGRVRISITFTFWSAG [r5_512_TrROS]	3.49 ± 0.09	2.8 ± 0.076	3.27 ± 0.28
SAGNPDYIPIPFRVWIMRRVPPGMSKEQAKKNPDMYVMVPIPVKFYIDPDTGRIRVENPDGKTIEFPLPSAG [r5_701_TrROS]	3.15 ± 0.07	2.11 ± 0.03	2.68 ± 0.096
SAGNPSLVKETIIPFTLPDGSEVKLTVKTDPSTGKVTMPIETKDEKVKAKAIELAKKIAEELGFPEVGLSAG [r5_99_JUSTAS]	0.241 ± 0.14	-0.00377 ± 0.15	0.261 ± 0.079
SAGNVVETEEKPVESPLPRKATLTTLTSPTPGVTFRVFTSPENVTTVEVETDGRTETLEPAEAEALLASSAG [r5_157_JUSTAS]	-0.995 ± 0.3	-1.35 ± 0.58	< -1
SAGNWKIEIKVKHRRTPDGYYRVTARIQIWDPKNGKPLREIPIEGPFDSPEQAERRARKKAKEILKALSAGG [r19_255_TrROS]	2.71 ± 0.044	2.97 ± 0.068	2.74 ± 0.13
SAGNYYRVEVENPSEGKKVTIHIFPNGMINVEHDGGEHWIMIPPDNPDQIEEIASELAPNGYEVDIEPWSAG [r5_791_TrROS]	0.856 ± 0.27	0.593 ± 0.11	0.774 ± 0.18
SAGPDLPFDVRLVEVRDMEVRVTPDGRLVVTLPMVGRHPSGFLVRRTIRFEPETDRVEATGEVRPLDESAGG [r19_320_TrMRF]	0.804 ± 0.087	0.581 ± 0.062	0.774 ± 0.059
SAGPEPVIRLAREHLERGEVLRITLTGRSGVPRTFLLRPEDILWFFDNLPDPSDIASVDIETYPLGYPPSAG [r5_956_TrMRF]	3.352 ± 0.016	2.17 ± 0.028	3.01 ± 0.078
SAGPEVVVFKGIEVEVTEVPPELLENLPPDVIAIPFGDRVLLIRVREYDVARFPPIPPLGANPETGELSSAG [r14_126_TrMRF]	2.61 ± 0.11	2.17 ± 0.12	2.44 ± 0.3
SAGPGWIMIRVKIKMRKWKDGKPVRRPIEIPIMAPADGDPEAARRKAEELAEFLAQMYGMEIEDVEIFPSAG [r5_497_TrROS]	3.74 ± 0.057	3.07 ± 0.092	3.55 ± 0.065
SAGPITITYDEETGTLTITATVAPGEEVTFKLTFVDEETGVVVTEVEETVTVKEGDTVTITVKVEKLPPSAG [r5_737_TrROS_Hall]	3.69 ± 0.13	2.19 ± 0.14	3.34 ± 0.27
SAGPKELAKQIKEIARELARAFHPNGQPMKMEVEIEPVSIDDENGWVRLKVKIRMPNRPVKFNITIPLKSAG [r5_53_TrROS]	3.19 ± 0.12	2.04 ± 0.07	2.72 ± 0.27
SAGPKIEIHYTPNGIHLTIELPGEWIWMMIPVPPGEKVKIRLPGNGLEITARPYDDYVMIRIRIPDAPSAGG [r19_384_TrROS]	5.3 ± 0.16	3.59 ± 0.083	4.74 ± 0.27
SAGPKITVKKLPDGSYLLLIEVPHEGGPSSRALIPYNPKTGKLELLEIETTHEEIKDKLIELAEELRKSSAG [r5_266_TrMRF]	2.8 ± 0.071	1.96 ± 0.08	2.52 ± 0.13
SAGPNKPYKIRVSIMHPGKWREHEIDIDPGEDIEEALDEIMDKLPPNWMIMIHYANGEMIMIPIPPEMISAG [r5_77_TrROS]	2.18 ± 0.086	1.72 ± 0.097	2.11 ± 0.16
SAGPPGQPIKPIDITVKPEENTITIKFGDKNLEIPIPPGVEADIWVYPDHIVITIEFPDGKIVTIVLPFSAG [r5_21_TrROS]	4.46 ± 0.19	3.73 ± 0.31	4.33 ± 0.26
SAGPPKKREFEIMIQIPLPPGQSAEELKDLLEIPIRLPDGKTIEIRPRAIEVDPGPGQVTVHYKIEVTDSAG [r5_939_TrROS]	0.498 ± 0.11	0.179 ± 0.079	0.463 ± 0.099
